Tests used:
[1] = molecular target: T1, canine FcRn complex (FcRn-α subunit and β-microglobulin) (canine, UniProt A0A8I3PFR8 25-347, biotin on the BAP tag by BirA (Example 5 only)); assay: SPR (Biacore), FcRn amine-coupled to CM5, IgG flowed, pH 6, 15 C
[2] = molecular target: T1, canine FcRn complex (FcRn-α subunit and …); assay: SPR (Biacore), FcRn amine-coupled to CM5, IgG flowed, pH 7.2, 15 C
[3] = molecular target: T1, canine FcRn complex (FcRn-α subunit and …); assay: SPR (Biacore), biotinylated FcRn on SA chip, IgG flowed, pH 6, 15 C
[4] = molecular target: IL-31 (target protein of mAb1); assay: SPR (Biacore T200), target amine-coupled to CM5, antibody flowed, 15 C, 1:1 model
[5] = molecular target: IL-31 (target protein of mAb1); assay: cell-based or functional assay

T1 sequence (A0A8I3PFR8 entry or part of it, one chain of several): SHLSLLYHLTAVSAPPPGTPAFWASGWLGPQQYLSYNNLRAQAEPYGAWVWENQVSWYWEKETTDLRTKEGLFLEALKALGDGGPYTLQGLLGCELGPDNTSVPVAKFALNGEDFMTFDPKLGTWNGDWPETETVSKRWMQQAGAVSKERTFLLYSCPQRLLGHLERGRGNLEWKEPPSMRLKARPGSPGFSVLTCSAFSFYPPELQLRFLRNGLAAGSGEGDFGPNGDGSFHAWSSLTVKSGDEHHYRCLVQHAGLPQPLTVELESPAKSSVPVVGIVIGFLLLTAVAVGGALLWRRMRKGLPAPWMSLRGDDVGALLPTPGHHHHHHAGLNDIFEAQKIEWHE

B1: mAb1, caninized anti-IL31 antibody 34D03, canine IgGB (65), N434H (antibody)
heavy: EVQLVESGGDLVKPGGSLRLSCVASGFTFSNYGMSWVRQAPGKGLQWVATISYGGSYTYYPDNIKGRFTISRDNAKNTLYLQMNSLRAEDTAMYYCVRGYGYDTMDYWGQGTLVTVSSASTTAPSVFPLAPSCGSTSGSTVALACLVSGYFPEPVTVSWNSGSLTSGVHTFPSVLQSSGLYSLSSMVTVPSSRWPSETFTCNVAHPASKTKVDKPVPKRENGRVPRPPDCPKCPAPEMLGGPSVFIFPPKPKDTLLIARTPEVTCVVVDLDPEDPEVQISWFVDGKQMQTAKTQPREEQFNGTYRVVSVLPIGHQDWLKGKQFTCKVNNKALPSPIERTISKARGQAHQPSVYVLPPSREELSKNTVSLTCLIKDFFPPDIDVEWQSNGQQEPESKYRTTPPQLDEDGSYFLYSKLSVDKSRWQRGDTFICAVMHEALHHHYTQESLSHSPGK
VL: EIVMTQSPASLSLSQEEKVTITCKASQSVSFAGTGLMHWYQQKPGQAPKLLIYRASNLEAGVPSRFSGSGSGTDFSFTISSLEPEDVAVYYCQQSREYPWTFGQGTKLEIK
notes: VH/VL: the caninized 34D03 entries of the listing; also called mAb1 N434H; mAb1 N434H Mutant
Q: Which Kd [1] does the source give for B1 here?
A: 0.7 to 1.3 nM

Q: What about the Kd [2] of the same binder?
A: 5000 nM

Q: And the Kd [3]?
A: 6.45 nM

Q: And the Kd [4]?
A: 0.373 nM

Q: And the IC50 (cell based potency assay) [5]?
A: 0.99 nM

From US20260193342A1 (ZOETIS SERVICES, published 2026)
